One substance from publication PMC6032885 can be followed below.

In the assay the target is TbAlsin (T. brucei). The assay can be described thus: co-IP; equal volumes (10 uL each) of in vitro translated 35S-Met-labelled HA-tagged TbVps9 protein (bait) and TbRab (prey) mixed, 1 h at room temperature; anti-HA polyclonal antibody and protein A beads; 7 washes with 50 mM Tris pH 7.5, 150 mM NaCl, 10 mM EDTA, 0.1% Triton X-100, 10 mM MgCl2; SDS-PAGE and autoradiography.

The substance TbRab5A^SN (natural protein) registered a percent of TbAlsin bound of 50%.
